Assay results: paper PMC9352680, “A comprehensive thermodynamic model for RNA binding by the Saccharomyces cerevisiae Pumilio protein PUF4”

Biological target: T1, PUF4 RNA-binding domain (Saccharomyces cerevisiae, UniProt P25339 537-888)
T1 sequence: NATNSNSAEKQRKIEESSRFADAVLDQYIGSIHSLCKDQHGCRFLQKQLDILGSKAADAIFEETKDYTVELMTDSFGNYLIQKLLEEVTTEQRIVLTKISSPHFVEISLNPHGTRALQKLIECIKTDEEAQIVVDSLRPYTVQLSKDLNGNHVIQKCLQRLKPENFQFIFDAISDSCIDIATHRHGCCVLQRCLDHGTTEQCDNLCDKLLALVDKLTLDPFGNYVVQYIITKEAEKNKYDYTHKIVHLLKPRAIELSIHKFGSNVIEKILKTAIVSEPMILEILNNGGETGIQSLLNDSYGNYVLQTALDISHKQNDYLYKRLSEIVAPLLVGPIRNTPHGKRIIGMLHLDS
Assay: Mg; RNA-MaP; 20 mM Na-HEPES pH 7.4, 30 mM KOAc, 0.75 mM MgCl2, 0.1% Tween-20, 5% glycerol, 0.1 mg/mL BSA, 2 mM DTT; 25 C; 0.0125-409.6 nM protein
Conditions: tags: N-His6-TEV cleaved; C-SNAP kept, Cy3B-labelled; label: tethered on chip by stalled RNA polymerase

B1: Ie_S2_P4E.1_K4.1_C4.1_H4.1_[+1TC]_A4.1_F4.1_T4.1 (ssRNA)
RNA: UUUGAUUAAUAUGAUAUCGUUCUUUCUUUCGUAUAUUAUUCUUUCUCGAUAUCAUAUUAAUCUUU
- Kd: 8.48 nM

B2: Ie_S2_P4E.1_K4.1_C4.1_H4.1_[+1T]_A4.1_F4.1_T4.1 (ssRNA)
RNA: UUUGAUUAAUAUGAUAUCGUUCUUUCUUUGUAUAUUAUUCUUUCUCGAUAUCAUAUUAAUCUUU
- Kd: 0.232 nM

B3: Ie_S2_P3E.2_K3.1_C3.2_H3.1_[+4CCCTT]_A3.1_F3.1_T3.2 (ssRNA)
RNA: UUUGAUUAAUAUGAUAUCGUUCUUUCUCUUGUACCCUUUAUAUAUUCUUUCUCGAUAUCAUAUUAAUCUUU
- Kd: 6.09 nM

B4: Ie_S2_P3E.2_K3.1_C3.2_H3.1_A3.1_F3.1_[+8CCCTT]_T3.2 (ssRNA)
RNA: UUUGAUUAAUAUGAUAUCGUUCUUUCUCUUGUAUAUACCCUUUAUUCUUUCUCGAUAUCAUAUUAAUCUUU
- Kd: 3.77 nM

B5: Ie_S2_P3E.2_K3.1_C3.2_H3.1_A3.1_F3.1_[+8TTCCT]_T3.2 (ssRNA)
RNA: UUUGAUUAAUAUGAUAUCGUUCUUUCUCUUGUAUAUAUUCCUUAUUCUUUCUCGAUAUCAUAUUAAUCUUU
- Kd: 2.02 nM

B6: Ie_S2_P3E.2_K3.1_C3.2_H3.1_A3.1_F3.1_[+8CTCTC]_T3.2 (ssRNA)
RNA: UUUGAUUAAUAUGAUAUCGUUCUUUCUCUUGUAUAUACUCUCUAUUCUUUCUCGAUAUCAUAUUAAUCUUU
- Kd: 5.38 nM

B7: Ie_S2_P3E.2_K3.1_C3.2_H3.1_A3.1_F3.1_[+8TCTCT]_T3.2 (ssRNA)
RNA: UUUGAUUAAUAUGAUAUCGUUCUUUCUCUUGUAUAUAUCUCUUAUUCUUUCUCGAUAUCAUAUUAAUCUUU
- Kd: 3.44 nM

B8: Ie_S2_P3E.2_K3.1_C3.2_H3.1_[+4CCC]_A3.1_F3.1_T3.2 (ssRNA)
RNA: UUUGAUUAAUAUGAUAUCGUUCUUUCUCUUGUACCCUAUAUAUUCUUUCUCGAUAUCAUAUUAAUCUUU
- Kd: 1.82 nM

B9: Ie_S2_P3E.2_K3.1_C3.2_H3.1_A3.1_F3.1_[+8TCC]_T3.2 (ssRNA)
RNA: UUUGAUUAAUAUGAUAUCGUUCUUUCUCUUGUAUAUAUCCUAUUCUUUCUCGAUAUCAUAUUAAUCUUU
- Kd: 2.84 nM

B10: Ie_S2_P3E.2_K3.1_C3.2_H3.1_[+4CTT]_A3.1_F3.1_T3.2 (ssRNA)
RNA: UUUGAUUAAUAUGAUAUCGUUCUUUCUCUUGUACUUUAUAUAUUCUUUCUCGAUAUCAUAUUAAUCUUU
- Kd: 1.08 nM

B11: Ie_S2_P3E.2_K3.1_C3.2_H3.1_A3.1_F3.1_[+7TCC]_T3.2 (ssRNA)
RNA: UUUGAUUAAUAUGAUAUCGUUCUUUCUCUUGUAUAUUCCAUAUUCUUUCUCGAUAUCAUAUUAAUCUUU
- Kd: 6.48 nM

B12: Ie_S2_P3E.2_K3.1_C3.2_H3.1_A3.1_F3.1_[+8CTC]_T3.2 (ssRNA)
RNA: UUUGAUUAAUAUGAUAUCGUUCUUUCUCUUGUAUAUACUCUAUUCUUUCUCGAUAUCAUAUUAAUCUUU
- Kd: 5.33 nM

B13: Ie_S2_P3E.2_K3.1_C3.2_H3.1_A3.1_F3.1_[+8CCT]_T3.2 (ssRNA)
RNA: UUUGAUUAAUAUGAUAUCGUUCUUUCUCUUGUAUAUACCUUAUUCUUUCUCGAUAUCAUAUUAAUCUUU
- Kd: 2.8 nM

B14: Ie_S2_P3E.2_K3.1_C3.2_H3.1_A3.1_F3.1_[+8TCT]_T3.2 (ssRNA)
RNA: UUUGAUUAAUAUGAUAUCGUUCUUUCUCUUGUAUAUAUCUUAUUCUUUCUCGAUAUCAUAUUAAUCUUU
- Kd: 2.19 nM

B15: Ie_S2_P3E.2_K3.1_C3.2_H3.1_A3.1_F3.1_[+8TTC]_T3.2 (ssRNA)
RNA: UUUGAUUAAUAUGAUAUCGUUCUUUCUCUUGUAUAUAUUCUAUUCUUUCUCGAUAUCAUAUUAAUCUUU
- Kd: 2.96 nM

B16: Ie_S2_P3E.2_K3.1_C3.2_H3.1_[+4CCT]_A3.1_F3.1_T3.2 (ssRNA)
RNA: UUUGAUUAAUAUGAUAUCGUUCUUUCUCUUGUACCUUAUAUAUUCUUUCUCGAUAUCAUAUUAAUCUUU
- Kd: 1.4 nM

B17: Ie_S2_P3E.2_K3.1_C3.2_H3.1_A3.1_F3.1_[+7CCC]_T3.2 (ssRNA)
RNA: UUUGAUUAAUAUGAUAUCGUUCUUUCUCUUGUAUAUCCCAUAUUCUUUCUCGAUAUCAUAUUAAUCUUU
- Kd: 19.5 nM

B18: Ie_S2_P3E.2_K3.1_C3.2_H3.1_A3.1_F3.1_[+7TTC]_T3.2 (ssRNA)
RNA: UUUGAUUAAUAUGAUAUCGUUCUUUCUCUUGUAUAUUUCAUAUUCUUUCUCGAUAUCAUAUUAAUCUUU
- Kd: 9.85 nM

B19: Ie_S2_P3E.2_K3.1_C3.2_H3.1_A3.1_F3.1_[+8CCC]_T3.2 (ssRNA)
RNA: UUUGAUUAAUAUGAUAUCGUUCUUUCUCUUGUAUAUACCCUAUUCUUUCUCGAUAUCAUAUUAAUCUUU
- Kd: 7.81 nM

B20: Ie_S2_P3E.2_K3.1_C3.2_H3.1_A3.1_F3.1_[+7CTC]_T3.2 (ssRNA)
RNA: UUUGAUUAAUAUGAUAUCGUUCUUUCUCUUGUAUAUCUCAUAUUCUUUCUCGAUAUCAUAUUAAUCUUU
- Kd: 14 nM

B21: Ie_S2_P4E.1_K4.1_C4.1_H4.1_[+1CCT]_A4.1_F4.1_T4.1 (ssRNA)
RNA: UUUGAUUAAUAUGAUAUCGUUCUUUCUUCCUGUAUAUUAUUCUUUCUCGAUAUCAUAUUAAUCUUU
- Kd: 0.245 nM

B22: Ie_S2_P3E.2_K3.1_C3.2_H3.1_A3.1_[+5C]_F3.1_T3.2 (ssRNA)
RNA: UUUGAUUAAUAUGAUAUCGUUCUUUCUCUUGUAUCAUAUAUUCUUUCUCGAUAUCAUAUUAAUCUUU
- Kd: 0.639 nM

B23: Ie_S2_P3E.2_K3.1_C3.2_H3.1_A3.1_F3.1_[+8T]_T3.2 (ssRNA)
RNA: UUUGAUUAAUAUGAUAUCGUUCUUUCUCUUGUAUAUAUUAUUCUUUCUCGAUAUCAUAUUAAUCUUU
- Kd: 1.66 nM

B24: Ie_S2_P3E.2_K3.1_C3.2_H3.1_A3.1_F3.1_[+8C]_T3.2 (ssRNA)
RNA: UUUGAUUAAUAUGAUAUCGUUCUUUCUCUUGUAUAUACUAUUCUUUCUCGAUAUCAUAUUAAUCUUU
- Kd: 2.93 nM

B25: Ie_S2_P3E.2_K3.1_C3.2_H3.1_A3.1_F3.1_[+7C]_T3.2 (ssRNA)
RNA: UUUGAUUAAUAUGAUAUCGUUCUUUCUCUUGUAUAUCAUAUUCUUUCUCGAUAUCAUAUUAAUCUUU
- Kd: 5.11 nM

B26: Ie_S2_P3E.2_K3.1_C3.2_H3.1_A3.1_[+6C]_F3.1_T3.2 (ssRNA)
RNA: UUUGAUUAAUAUGAUAUCGUUCUUUCUCUUGUAUACUAUAUUCUUUCUCGAUAUCAUAUUAAUCUUU
- Kd: 0.437 nM

B27: Ie_S2_P3E.2_K3.1_C3.2_H3.1_A3.1_F3.1_[+8CCTCT]_T3.2 (ssRNA)
RNA: UUUGAUUAAUAUGAUAUCGUUCUUUCUCUUGUAUAUACCUCUUAUUCUUUCUCGAUAUCAUAUUAAUCUUU
- Kd: 4.17 nM

B28: Ie_S2_P3E.2_K3.1_C3.2_H3.1_A3.1_[+5CC]_F3.1_T3.2 (ssRNA)
RNA: UUUGAUUAAUAUGAUAUCGUUCUUUCUCUUGUAUCCAUAUAUUCUUUCUCGAUAUCAUAUUAAUCUUU
- Kd: 7.04 nM

B29: Ie_S2_P3E.2_K3.1_C3.2_H3.1_A3.1_F3.1_[+8TC]_T3.2 (ssRNA)
RNA: UUUGAUUAAUAUGAUAUCGUUCUUUCUCUUGUAUAUAUCUAUUCUUUCUCGAUAUCAUAUUAAUCUUU
- Kd: 2.05 nM

B30: Ie_S2_P3E.2_K3.1_C3.2_H3.1_A3.1_F3.1_[+8TT]_T3.2 (ssRNA)
RNA: UUUGAUUAAUAUGAUAUCGUUCUUUCUCUUGUAUAUAUUUAUUCUUUCUCGAUAUCAUAUUAAUCUUU
- Kd: 1.56 nM

B31: Ie_S2_P3E.2_K3.1_C3.2_H3.1_A3.1_F3.1_[+8CT]_T3.2 (ssRNA)
RNA: UUUGAUUAAUAUGAUAUCGUUCUUUCUCUUGUAUAUACUUAUUCUUUCUCGAUAUCAUAUUAAUCUUU
- Kd: 3.03 nM

B32: Ie_S2_P3E.2_K3.1_C3.2_H3.1_A3.1_F3.1_[+7CT]_T3.2 (ssRNA)
RNA: UUUGAUUAAUAUGAUAUCGUUCUUUCUCUUGUAUAUCUAUAUUCUUUCUCGAUAUCAUAUUAAUCUUU
- Kd: 3.3 nM

B33: Ie_S2_P3E.2_K3.1_C3.2_H3.1_A3.1_F3.1_[+7CC]_T3.2 (ssRNA)
RNA: UUUGAUUAAUAUGAUAUCGUUCUUUCUCUUGUAUAUCCAUAUUCUUUCUCGAUAUCAUAUUAAUCUUU
- Kd: 17.5 nM

B34: Ic_S2_P3E.1_K3.1_C3.1_H3.1_A3.1_[T5C]_F3.1_[A8G]_T3.1 (ssRNA)
RNA: UUUGAUUAAUAUGAUAUCGUUCUUUCUUGUACAUGUUCUUUCUCGAUAUCAUAUUAAUCUUU
- Kd: 10.4 nM

B35: Ia_S2_P3E.1_K3.1_C3.1_H3.1_[G2T]_A3.1_F3.1_T3.1 (ssRNA)
RNA: UUUGAUUAAUAUGAUAUCGUUCUUUCUUUUAUAUAUUCUUUCUCGAUAUCAUAUUAAUCUUU
- Kd: 366 nM

B36: Ic_S2_P3E.1_K3.1_C3.1_H3.1_A3.1_[T5C]_F3.1_[A8C]_T3.1 (ssRNA)
RNA: UUUGAUUAAUAUGAUAUCGUUCUUUCUUGUACAUCUUCUUUCUCGAUAUCAUAUUAAUCUUU
- Kd: 11.1 nM

B37: Ib_S2_P3E.1_K3.1_C3.1_H3.1_A3.1_[T5C]_F3.1_[A8T]_T3.1 (ssRNA)
RNA: UUUGAUUAAUAUGAUAUCGUUCUUUCUUGUACAUUUUCUUUCUCGAUAUCAUAUUAAUCUUU
- Kd: 1.62 nM

B38: Ic_S2_P3E.1_K3.1_C3.1_H3.1_A3.1_[A6G]_F3.1_[A8G]_T3.1 (ssRNA)
RNA: UUUGAUUAAUAUGAUAUCGUUCUUUCUUGUAUGUGUUCUUUCUCGAUAUCAUAUUAAUCUUU
- Kd: 44.9 nM

B39: Ie_S2_P3E.2_K3.1_C3.2_H3.1_[+4CTCT]_A3.1_F3.1_T3.2 (ssRNA)
RNA: UUUGAUUAAUAUGAUAUCGUUCUUUCUCUUGUACUCUUAUAUAUUCUUUCUCGAUAUCAUAUUAAUCUUU
- Kd: 3.27 nM

B40: Ie_S2_P3E.2_K3.1_C3.2_H3.1_A3.1_F3.1_[+8TTCC]_T3.2 (ssRNA)
RNA: UUUGAUUAAUAUGAUAUCGUUCUUUCUCUUGUAUAUAUUCCUAUUCUUUCUCGAUAUCAUAUUAAUCUUU
- Kd: 2.56 nM

B41: Ie_S2_P3E.2_K3.1_C3.2_H3.1_A3.1_F3.1_[+8CCTC]_T3.2 (ssRNA)
RNA: UUUGAUUAAUAUGAUAUCGUUCUUUCUCUUGUAUAUACCUCUAUUCUUUCUCGAUAUCAUAUUAAUCUUU
- Kd: 4.3 nM

B42: Ie_S2_P3E.2_K3.1_C3.2_H3.1_[+4CCCT]_A3.1_F3.1_T3.2 (ssRNA)
RNA: UUUGAUUAAUAUGAUAUCGUUCUUUCUCUUGUACCCUUAUAUAUUCUUUCUCGAUAUCAUAUUAAUCUUU
- Kd: 2.61 nM

B43: Ie_S2_P3E.2_K3.1_C3.2_H3.1_A3.1_F3.1_[+8TCTC]_T3.2 (ssRNA)
RNA: UUUGAUUAAUAUGAUAUCGUUCUUUCUCUUGUAUAUAUCUCUAUUCUUUCUCGAUAUCAUAUUAAUCUUU
- Kd: 3.5 nM

B44: Ie_S2_P3E.2_K3.1_C3.2_H3.1_[+4CCTC]_A3.1_F3.1_T3.2 (ssRNA)
RNA: UUUGAUUAAUAUGAUAUCGUUCUUUCUCUUGUACCUCUAUAUAUUCUUUCUCGAUAUCAUAUUAAUCUUU
- Kd: 4.82 nM
